In patent US12421510B2, “Peptide, a complex and a method for treating cancer” (TECHNION RESEARCH & DEVELOPMENT FOUNDATION LIMITED, priority 2018, dated 2025):

Assays:
p105 = target: T1, p105 (Homo sapiens, UniProt P19838); assay: Ubiquitination of p105 by purified KPC1 species in cell-free conjugation assay; format: biochemical; conditions: reconstituted cell-free system, in vitro translated 35S-labeled p105, purified Ub, E1, E2, UbAl, ATP
T1 sequence (P19838 1-968): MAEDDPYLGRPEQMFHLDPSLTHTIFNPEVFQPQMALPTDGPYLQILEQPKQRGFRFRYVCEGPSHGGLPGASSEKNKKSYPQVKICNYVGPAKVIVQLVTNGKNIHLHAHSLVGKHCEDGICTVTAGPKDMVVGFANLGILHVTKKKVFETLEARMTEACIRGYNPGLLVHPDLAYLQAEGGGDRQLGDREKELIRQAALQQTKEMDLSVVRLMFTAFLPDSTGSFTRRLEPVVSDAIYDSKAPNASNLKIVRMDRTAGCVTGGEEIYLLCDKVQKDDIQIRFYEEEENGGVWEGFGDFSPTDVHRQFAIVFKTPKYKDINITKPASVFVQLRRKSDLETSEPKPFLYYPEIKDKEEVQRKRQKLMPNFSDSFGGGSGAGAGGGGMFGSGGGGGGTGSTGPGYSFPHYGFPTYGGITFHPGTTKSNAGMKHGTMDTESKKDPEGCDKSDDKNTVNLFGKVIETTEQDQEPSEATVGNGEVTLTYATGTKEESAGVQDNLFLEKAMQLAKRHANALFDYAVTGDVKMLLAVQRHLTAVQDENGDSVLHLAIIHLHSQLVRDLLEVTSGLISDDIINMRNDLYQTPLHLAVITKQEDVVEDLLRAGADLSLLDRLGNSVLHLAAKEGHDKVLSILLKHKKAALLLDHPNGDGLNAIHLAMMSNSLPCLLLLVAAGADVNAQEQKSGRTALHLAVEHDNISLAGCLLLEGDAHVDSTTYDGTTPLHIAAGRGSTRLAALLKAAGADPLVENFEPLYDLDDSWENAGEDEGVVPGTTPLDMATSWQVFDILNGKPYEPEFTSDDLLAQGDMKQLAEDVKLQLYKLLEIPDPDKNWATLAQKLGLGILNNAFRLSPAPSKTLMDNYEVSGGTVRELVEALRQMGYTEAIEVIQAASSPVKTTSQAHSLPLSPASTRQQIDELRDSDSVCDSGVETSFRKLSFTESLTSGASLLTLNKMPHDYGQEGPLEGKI
Text: FIGS. 4A and 4B represent western blots showing in vitro ubiquitination of p105 by mutated species of KPC1: FIG. 4A: In vitro translated and ^35S-labeled p105 was ubiquitinated by purified KPC1-Δ1-967-6xHIS (lanes 2-4) or KPC1-Δ1-974-6xHIS (lanes 5-7) in a reconstituted cell-free system. 4B) In vitro translated and ^355-labeled p105 was ubiquitinated by purified KPC1-Δ1-967-6xHIS (lanes 2,5,6), KPC1-Δ1-974-6xHIS (lane 3), KPC1-Δ967-1043-6xHIS (lane 4), WILVRLW-KPC1-Δ1-1039-6xHIS (lanes 7-8) or WILVRLW-KPC1-Δ1-1061-6xHIS (lanes 9-10) in a reconstituted cell-free system.
In order to assess if the interaction between two proteins leads to the conjugation of the substrate p105, ubiquitination reaction was performed in cell free system. The conjugation reaction was carried out in the presence of purified Ub, E1, E2, UbAl, ATP and KPC1—either wild-type or different mutant species. Samples were resolved via SDS-PAGE and the 35S-labeled p105 and its adducts were visualized using autoradiography. […] In addition, the shorter versions of KPC1 in which the 7 amino acids sequence were brought closer to RING domain, the active site of the enzyme were prepared. Both truncated KPC1 proteins that harbor the 7 amino acid sequence, WILVRLW-KPC1-Δ1-1039 (SEQ ID. No. 6) and WILVRLW-KPC1-Δ1-1061 (SEQ ID. No. 7), modified p105 (FIG. 4B, lanes 7-10).

[1] = tested on: glioblastoma U87-MG tumor; assay: Growth of U87-MG tumor xenografts overexpressing KPC1 species in nude mice; format: in vivo; conditions: overexpression in U87-MG cells injected to nude mice; growth rates and weights of xenografts, three weeks after inoculation
Text: FIG. 8A and FIG. 8B depict growth rates and weights of tumor xenografts grown in nude mice, and derived from U87-MG expressing V0 (control), Myc-KPC1 or Flag-WILVRLW-KPC1Δ1-1039 (SEQ ID NO: 6).
Growth rates and weights (FIG. 8B) of tumor xenografts grown in nude mice, and derived from U87-MG expressing VO (control), Myc-KPC1, and Flag-WILVRLW-KPC1Δ1-1039 (SEQ ID. No. 6).

B1: WILVRLW-KPC1-Δ1-1039: truncated KPC1 with the 7 amino acid sequence brought closer to RING domain, SEQ ID NO: 6 (protein)
chain: WILVRLWAFSEFIGMIQEIQQAAERLERNFVDSRQLKVCATCFDLSVSLLRVLEMTITLVPEIFLDWTRPTSEMLLRRLAQLLNQVLNRVTAERNLFDRVVTLRLPGLESVDHYPILVAVTGILVQLLVRGPASEREQATSVLLADPCFQLRSICYLLGQPEPPAPGTALPAPDRKRFSLQSYADYISADELAQVEQMLAHLTSASAQAAAASLPTSEEDLCPICYAHPISAVFQPCGHKSCKACINQHLMNNKDCFFCKTTIVSVEDWEKGANTSTTSSAA
- ubiquitination of p105 (p105): modified p105
- tumor growth [1]: repressed glioblastoma U87-MG tumor growth
